# According to article PMC9162458 (2022):
# Read-outs that look alike come from different tables or passages of the source. Ends that are not written are not given here.
# B1: LiRAD51^ATPase (Leishmania infantum RAD51 ATPase domain, residues 134–386) (domain or fragment)
# chain: EIIMVTTGSREVDKLLGGGIETGSITELFGEFRTGKTQLCHTLCVTCQLPISQGGAEGMALYIDTEGTFRPERLVAVAARYGLDPEDVLANVACARAFNTDHQQQLLLQASAMMAENRFALIVVDSATALYRTDYSGRNELAARQMHLGKFLRSLHNLAEEYGVAVVVTNQVVANVDGSAQMFQADSKKPIGGHIMAHASTTRLSLRKGRGEQRIIKVYDSPCLAEAEAIFGIYDDGVGDARD
# Columns and labels:
# [1] = target: B1; experiment: FP
# [2] = target: B1; experiment: FP
# [3] = target: B1; experiment: ITC
# [4] = target: B1; experiment: FP
# [5] = target: LiBRC1.6; experiment: FP
# [6] = target: LiBRC1.5; experiment: FP
# [7] = target: LiBRC1.12; experiment: FP
# [8] = target: LiBRC1.4; experiment: FP
binder,measurement,setting,value
"LVPTLFSTASGKPVTVRRESLQKV (domain or fragment, not fully specified (N-terminus, C-terminus); also: GB1 fusion) [LiBRC1.9 (C-terminal truncation of LiBRC1, GB1 fusion)]",Kd,[1],2630 nM
same,IC50,[2],11000 nM
GSLVPTLFSTASGKPVTVRRESLQKVAERLGDLAA [LiBRC1 free peptide],Ka,[3],1.54e+06 M⁻¹
"LVPTLFSTASGKPVTVRRESLQKVAE (domain or fragment, not fully specified (N-terminus); also: GB1 fusion) [LiBRC1.7 (C-terminal truncation of LiBRC1, residues up to Arg134 removed, GB1 fusion)]",IC50,[2],1990 nM
"AAAPPLVPTLFSTASGKPVTVRRESLQKVAERLGDLAA (domain or fragment, not fully specified (N-terminus); also: GB1 fusion) [LiBRC1.3 (LiBRC1 with extended termini, GB1 fusion)]",IC50,[2],1670 nM
"LVPTLFSTASGKPVTVRRESLQKVA (domain or fragment, not fully specified (N-terminus); also: GB1 fusion) [LiBRC1.8 (C-terminal truncation of LiBRC1, Glu133 also removed, GB1 fusion)]",IC50,[2],8800 nM
"LVPTLFSTASGKPVTVRRESLQKVAERLGDLAAPDME (domain or fragment, not fully specified (N-terminus); also: GB1 fusion) [LiBRC1.2 (LiBRC1 with extended termini, GB1 fusion)]",IC50,[2],1200 nM
GB1-LVPTLFSTASGKPVTVRRESLQKVAERLGDLAA-His8 (domain or fragment) [GB1-LiBRC1-His8 (BRC repeat 1 of Leishmania infantum BRCA2 fused to GB1)],IC50,[4],1570 nM
"LVPTLFSTASGKPVTVRRESLQ (domain or fragment, not fully specified (N-terminus); also: GB1 fusion) [LiBRC1.11 (C-terminal truncation of LiBRC1 up until Gln129, GB1 fusion)]",IC50,[2],36500 nM
B1,Kd,[5],1090 nM
same,Kd,[6],380 nM
same,Kd,[7],> 124000 nM
same,Kd,[8],410 nM
GB1-RVPTLFETGRGKAVTVQKRSLDKAEASMDSLEA-His8 (domain or fragment) [GB1-LiBRC2-His8 (BRC repeat 2 of Leishmania infantum BRCA2 fused to GB1)],IC50,[4],55000 nM
"LVPTLFSTASGKPVTVRRESLQK (domain or fragment, not fully specified (N-terminus); also: GB1 fusion) [LiBRC1.10 (C-terminal truncation of LiBRC1, Val131 also removed, GB1 fusion)]",IC50,[2],41000 nM
